Substrate in this data set: BHET
To be noted: 120 h.

B1: unnamed (protein)
chain: MRACCAFNSTIPGDTMSLQLTKHFGLAALACAALMSLGAAAHAQSYQKGPNPTASALERAGPFATRTTDVSRYSVTNFGGGTIYYPTAAGQYGAIAVSPGYTASKSTVTFWGERLSSHGFVVIVIDTLTTLDQPASRARQLKAALDKVVSLSRSSSSPIYNKVDPNRLAVMGHSMGGGGTLQAAKDNPGLKAAIPMAPWNTVTNWSAVTVPTLVMACQADAIAPVANHAVPFYNSMSANKKSYIEMAGDDHLCVMNGGGHDATLGKMGIAWMKRFVDNDTRYSPFLCGLPYQATVNTSEVSVHRNNCPY
For the protein B1, the plate clearing entry was “clears the plate (z > 3 vs empty vector)”.

B2: unnamed (protein)
chain: MRSAKTSVLAAVALGAAALLALGACGGSNNPYIRGDDPTEESLSRPGPYAVKSLTEGDRNGPGYGGGTIYYPTDAEPPFAAVAIVPGFTSPQSSIASWGPFLASHGIVAMTIDTNSTFDQPDTRAAALLDALESIKGENTRAGSPLKGKLDTNRLGVMGWSMGGGGTLIAAKDNPELKAAISLCPWNPGSSYSNTKVPTLMIASQADPLAGVSGHSQPFYDSIPDSTPKMLFEVAGGDHFVANNPANGNGQVGRYGLSWLKRFLEGDERYRPFLLEKPPGASDYRTNVY
Take B2: the plate clearing entry is listed as “not clears the plate”.

B3: unnamed (protein)
chain: MPTPNTRPTPFGRLLQVTLAVSALALSLGAQAQQTGADPTTAILEAPAGPLAVSNVKVATPSGFGSGTVYYPTTGKGPYGLVSVTPGFVEGEWAINWLGPLLASHGFVVVTIGTTTILDAPTSRAKQMMAALKQVTALSATKTSPFAGKVDPSRLAVMGHSMGGGGSLDAARDNPNLKAAIPLAPWETTKDYSKITVPTLIVSCDSDVIAPVADHANKFYDSLTPTLTKALVEMKGAGHFCTNGTAIPATRTLVGKYSISWLKRFVDGDTRYSPFLCGAPHQADLAGSLISTYKGNCPY
On to B3, for which the plate clearing entry was “not clears the plate”.

B4: unnamed (protein)
chain: MFGKFPFARAGLAVGALLLSAAAVAQTNPYQRGPDPTVASLEATRGSFATSSFTVSRPSGYGAGTVYYPTNAGGKVGAIAVVPGFTARQSSINWWGARLASHGFVVITIDTNSTLDQPSSRSSQQMAALRQVVTLAGTTSSPIYNKVDTARLGVMGWSMGGGGSLISAKNNPTLRAAAPQAPWAQESFSTVTVPTLIISCESDTIAPNNTHSFPFYNQMTRNKKANLVINGGSHSCANSGNADAGLIGKYGVAWMKRFMDDDTRFSKFLCGAEHTADLSKRAIEAYKENCPY
As to B4, the plate clearing result was “not clears the plate”.

B5: unnamed (protein)
chain: MKFQRFLQATVLAGATLLSFGAAAIEIGPAPTKASLEASRGPFSVGQFTVSRPSGYGAGTVYYPTNAGAKVGAIAIVPGFVSYQSSIAWWGPRLASHGFVVITIDTNTTVDQPDSRSRQQLAALDQVIALSKTSSSPIYNKVDENRTGVMGWSMGGGGSLISAKNRPSIKAAAPQAPWNSSTNFSSVTVPTLIFACQSDIVAPVAQHASPFYNSITRAPKQYLEKTLGDHFCFNSANATVGLKGVAWMKRFIDGDTRYTSFACSNPNALGFSDFRTARCS
Take B5: the plate clearing entry is recorded as “not clears the plate”.

B6: unnamed (protein)
chain: MEISKKKCLIGLGLMAMAMGVQAQTNPLAKGPDPTNASIQANGPFAVTTVTISNANANGYGGATVYVPTAAGTYALVAFSPGFTARQDTIAVIGRRLATHGFVVATIDTNSTLDLPDSRGTQLLAALRSVAALNAGNTAAAGKIDTTRLVVTGHSMGGGGTLFASRTNTAIKAGVPIAPFSSGVKNFATPVPQFILGGEVDNVAPVDEHSIPFFNGLPNATPKVYAELNGEDHFFVSESTPNQPASKFQIAWIKRFADNDARYTQFVNSAGVAVERNNGRLSDGRLESF
Regarding B6, the plate clearing result was “not clears the plate”.

B7: unnamed (protein)
chain: MDPSLKRALGLVVALTAAMLFSASASAQNPPPDDDPEPCQTDCDDGGNGGYTRGPDPTDSYLEASSGPYNVATSNVSSFVSGFGGGTIHYPTNTSGSMGGIVVIPGYVSYESSIEWWGPRLASHGFVVMTIDTNSIYDQPGSRKDQIDAALDYLVGQSNASSSAISGMVDGDRLAAVGWSMGGGGTLQLAAEPGRLKAAMPLAPWNSSFNDFDQIQTPTLIFACESDAVAPVSSHASPFYNDIPDATDKAFFEMNNGSHTCANGGNAYDELLGKYGVSWMKLHLDEDQRYEQFLCGPNHESEYQVS
Consider B7, for which the plate clearing result is “not clears the plate”.

B8: unnamed (protein)
chain: MRKISFKASLFSTLTLLASSITYAGGGGGNGGNNNGGLPAPDTCEVNCGYNQGSNPSLNSLQSTRGNFSVATSNVPRSVPGFGGGTIYYPRNTSGELATIAIAPGFTAPQDAISWWGPVLASNGFVVITIDTNSRLDQPISRGRQLDSALSYLISQGNSSNSPISGMVDENRLASMGHSMGGGGALRSASRNRLSAAIPLAPFNVGGNSFNDIEVPTMIMACENDGTAPVNIHASPFYNRIPSSTDKALIELDNGNHSCANGGSGRNNAVLATYGVSWMKRFLDKDQRFIPFLCGPNHEANRGISDYRD
Regarding B8, the plate clearing result is on record as “not clears the plate”.

B9: unnamed (protein)
chain: MIMKNIDRRLRHCAVGLGLLLLAAVAQAQTNPLAKGPDPTSDLLNATAGPFAVATTSVSSSVSGFGGGTVYYPTASGSYATVAVCPGFTATQSSIAWIGRRMASHGFVVMTINTNSTLDQPPSRATQLMAALRYLTNSSNSTVRARVDANRLGVAGHSMGGGGTLMAARDNPTLKAAVPMTPWSQTKSFSTVRVPTLIVGAENDSVAPVASHSIPFYTSLSGSLDKAYAELNNASHFAPNSTNTPIGRYSVAWVKRFMDNDTRY
Consider B9, for which the plate clearing entry is “not clears the plate”.

B10: unnamed (protein)
chain: MNSRRASRLARAALAAGALLLSAAALATSNPYQRGPDPTAASLEASRGPFAVSSFTVSRPSGFGAGTVYYPTNAGGTVGAIAVVPGFTARQSSINWWGPRLASHGFVVITIDTNSTSDQPASRATQLMAALRQVVTLSGTSSSPIYNKVDTSRLGVMGWSMGGGGTLIAARNNPTLKAAVPLAPWNSSTNFSSVTVPTLIIACENDTVAPVSSHASPFYNSMTRTEKAYLEINGGSHSCANSGNSNQALLGKYGVAWMKRFMDNDTRYSSFLCGAPHSADLSSKSAISEYRENCPY
For the protein B10, the plate clearing result is on record as “clears the plate (z > 3 vs empty vector)”.

B11: unnamed (protein)
chain: MERKNSRRSWAIGLGLLVLAATSAHAQTNPYQKGPDPTSASLNATSGSFSVATSSVSSAVSGFGGGTIYYPTTTGTYAVLAISPGFTATQSSIAWLGRRIATHGFVVITIDTNSTLDQPPSRATQLMAALNYVTNSSSATVRAKVDASRRGVAGHSMGGGGTLYAARDNPSLKAAVPLTAWSTLKSFSSVQVPTLVVGAESDSIAPVSSHSIPFYNSLSGSLDKAYAELNGASHLAPNSTNTPIGRYSVAWVKRFMDNDTRYTPFLCGTPHT
For B11, the plate clearing result was “not clears the plate”.

B12: unnamed (protein)
chain: MQHSPSTSRTRQRVTGILASLAVAVGVGIAAGPAAQGADNPHERGPDPTESSIEASRGSYSISERNVSSLVSGFGGGTIYYPTTTRDGDFGAVVISPGYTGTERTISWLGPRLASQGFVVLTMATNSIYDQPDSRARQLQAALDYLTDSSPVADRIDADRLALMGHSMGGGGTLRAVDDNPDIKAAIPMTPWHVKKNWSSVSTPTLIFGAENDSVARHETHAEPFYESFDRDLQKAYLELDGASHFAPNSSNTTIAKYSISWLKRFVDDDTRYTQFLCPGPSTGWFSDVEKYESSCPF
For B12, the plate clearing result is reported as “not clears the plate”.

B13: unnamed (protein)
chain: MKTSRTRTATTTLTRLARLALAAAALLLSAAAQAQSSNPYQRGPDPTAASLEASAGPFAVSTTTVSSASGFGGGTIYYPTNTEGPFAAIAVVPGFTATQSSISWWGPRLASHGFVVITIDTNSTFDQPASRATQLMAALNYVVSLSNTSSSPIYGKVDSNRLGVMGHSMGGGGTLIAARDNPTLKAAIPLAPWNSSTNFSSVTVPTLIIACENDTVAPVSSHASPFYNSIPSSTDKAYLEINGGDHFCANSGNSNKAILGKYGVAWMKRFLDNDTRYSPFLCGAPHQADLSGSAISEYRDNCPY
In the case of B13, the plate clearing result is “clears the plate (z > 3 vs empty vector)”.

B14: unnamed (protein)
chain: MIEIRSSYKSKKTNCKRSVMPSMITKKAALPFVISSALLFSASAFAITPPSDPDPDPTPCEGDCDFTRGPDPTESMLEARSGPFNVDTVNVSSRVSGFGGGTIHYPTNTSGQMGAIVVAPGFVSPESSIGWWGPQLASHGFIVMTIATNSLYDQPDSRRDQLEAGLDYLISQSNSSGSDISGMVDSSRLGAMGWSMGGGGALQLAADGRLSAAIPLAPYNSSRNDFDDITTPTLIFACENDAVAAVRSHASPFYNDIPGSTDKAFVEINGGAHSCANGGNTNNSLLSKYGVSWMKLHLDQDQRYSQFLCGPNHESDRSISEYRGTCPY
Consider B14, for which the plate clearing result is listed as “not clears the plate”.

B15: unnamed (protein)
chain: MAKDRAGDVAAAKLNKSHLRGSPMEITQRGARILGTKCAASLGLLLLAATAAHAQSNPYAKGPDPTSSSLNASAGPFSVATSSVSSLAAVGFGSGTVYYPTTAGSYAAIAISPGFTATESSIAWLGRRVATHGFVVITINTNSTLDQPPSRATQLMAALRYLTNSSSSTVRSRIDTTRLGLAGHSMGGGGTLIAARDNPSLKAAVPLTAWSVTKSFSTMRVPTLVVGAENDSIASVSSHSIPFYNSLPSSLSKAYAELNGASHFAPNTTNTPIGRYTVAWVKRFMDNDTRYSPFLCGSPHDSYATGLVFSDYRDNCPY
With B15, the plate clearing result is “not clears the plate”.

These data come from the PETadex activity labels.
